Results on one molecule are retold here after patent US20200040065A1 (INTEGRATED BIOTHERAPEUTICS, published 2020).

The assay addresses BDBV GP ectodomain (Bundibugyo virus).

By EC50 is commonly meant the concentration that produces a half-maximal response. High values mean a need for much substance, low ones an effect from little substance.

B1: monoclonal antibody CA45 (antibody, V domains shown)
VH: QVQLQEWGEGLVKPSETLSLTCAVYGGSISGYYHWNWIRLPPGKGLEWIGNIDNSASTNYNPSLKTRVTISKDTSKNQISLKVRSLTAADTAVYYCARDPGFTIFGVVITSWSGLDSWGQGAVVTVSS
VL: DIQMTQSPSSLSASVGDTVTITCRASQSISNNLAWYQQRPRRAPQLLIYAASNLASGVPSRFSGSGSGTDFTLTISSLQAEDFAAYYCQQHNTLPLTFGGGTKVEI
With B1, the EC50 was in the range of 0.65 to 1.41 nM.
